# ± gives the standard deviation of the averaged measurements.
# System: ATP
# Assay: switch fluorescence ratio, 500 uM ATP over buffer (Cy3 cluster intensity, sum of 5 cycles each) (fold (ratio)); higher = stronger signal-on switching upon ATP binding; sequences stand for … in TCGTCGGCAGCGTCAGATGTGTATAAGAGACAGTTTTTTTTTTTTTTTTTTTTTTTTT…TC
# Conditions: aptamer strand: ATP DNA aptamer (quencher-CACCTGGGGGAGTATTGCGGAGGAAGG + anchor), 100 nM annealed; ATP concentration: 500 uM
# Procedure, shortened: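 The fluorescence ratio divides summed target-cycle Cy3 intensity by summed buffer-cycle Cy3 intensity for each cluster and is averaged per switch-domain sequence. Cy3-labelled switching-strand clusters on a modified Illumina MiSeq flow-cell were annealed to 100 nM quencher-labelled ATP aptamer, then imaged in selection buffer and again after 15 min with 500 uM ATP at 22 °C. Five such cycles were run, with NaOH stripping and re-annealing between them, and clusters outside 100-1000 RFU were excluded.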
# 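Note: ATP exposure 15 min at 22 °C before imaging.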
row,Sequence,switch fluorescence ratio
1,GCTATAGGTG,1.27 ± 0.057
2,GCTATAGTGG,1.04 ± 0.035
3,GCTATAGTGT,0.992 ± 0.021
4,GCTATATACA,1.04 ± 0.014
5,GCTATCATCG,0.997 ± 0.035
6,GCTATCGGGA,1.01 ± 0.037
7,GCTATCTGCT,0.976 ± 0.06
8,GCTATGAAAA,0.986 ± 0.028
9,GCTATGAG,0.995 ± 0.037
10,GCTATGGTGG,0.987 ± 0.021
11,GCTATGTAGG,1 ± 0.062
12,GCTCAAAGTT,0.99 ± 0.02
13,GCTCAAGTGC,1.07 ± 0.032
14,GCTCAGGGGG,1.03 ± 0.016
15,GCTCATAGGA,0.972 ± 0.016
16,GCTCCATGGG,1.02 ± 0.046
17,GCTCCCAAGG,3.69 ± 0.46
18,GCTCCCGGGC,1.1 ± 0.041
19,GCTCCGATAG,5.2 ± 0.94
20,GCTCCTGACT,1.15 ± 0.026
21,GCTCGAAAGA,1.008 ± 0.0024
22,GCTCGAATTA,1.02 ± 0.016
23,GCTCGACAAT,1.15 ± 0.14
24,GCTCGGAGGA,1 ± 0.025
25,GCTCGGGGGA,0.978 ± 0.022

row,Sequence,switch fluorescence ratio
1,GCTCGGGGTC,0.978 ± 0.062
2,GCTCTAAGGG,1.01 ± 0.028
3,GCTCTAGATG,1.04 ± 0.0076
4,GCTCTATACG,1.049 ± 0.003
5,GCTCTGGCTA,1.11 ± 0.022
6,GCTCTTGTGC,1.008 ± 0.0034
7,GCTCTTTAGA,0.962 ± 0.018
8,GCTCTTTGAA,1.01 ± 0.012
9,GCTGAAGGGA,0.99 ± 0.042
10,GCTGAAGTTT,0.979 ± 0.038
11,GCTGAGAGTC,0.992 ± 0.034
12,GCTGAGGGTT,0.9552 ± 0.006
13,GCTGATACGG,1.07 ± 0.027
14,GCTGATATGG,1.02 ± 0.054
15,GCTGATCGTA,0.9915 ± 0.0057
16,GCTGATTAG,0.954 ± 0.011
17,GCTGCACGGG,1.01 ± 0.03
18,GCTGCAGCGC,1.005 ± 0.0042
19,GCTGCCAACC,1.11 ± 0.031
20,GCTGGAAAGG,1.01 ± 0.079
21,GCTGGAACTG,1.06 ± 0.14
22,GCTGGAAGCA,0.986 ± 0.078
23,GCTGGAATGG,1.06 ± 0.015
24,GCTGGAGCCA,1.03 ± 0.019
25,GCTGGAGGGT,0.997 ± 0.019

row,Sequence,switch fluorescence ratio
1,GCTGGATGGC,0.993 ± 0.025
2,GCTGGCTTGC,0.988 ± 0.021
3,GCTGGGACAC,1.04 ± 0.012
4,GCTGGGAGTT,1 ± 0.054
5,GCTGGGCGAT,0.961 ± 0.032
6,GCTGGGCGGA,1.04 ± 0.039
7,GCTGGGGATT,0.987 ± 0.02
8,GCTGGGGGCT,1.008 ± 0.0076
9,GCTGGGTAAC,1.006 ± 0.0034
10,GCTGGGTGCA,0.9719 ± 0.0016
11,GCTGGGTTGC,1.01 ± 0.024
12,GCTGGGTTGG,1 ± 0.026
13,GCTGGTATAT,1.01 ± 0.016
14,GCTGGTCGCC,1.005 ± 0.01
15,GCTGGTTTCG,1.033 ± 0.0054
16,GCTGTAACG,1 ± 0.042
17,GCTGTAACTG,1.08 ± 0.017
18,GCTGTAATTT,0.998 ± 0.056
19,GCTGTACGCG,1.03 ± 0.029
20,GCTGTAGAAG,0.9951 ± 0.0056
21,GCTGTAGGGG,1.02 ± 0.081
22,GCTGTATTTA,0.974 ± 0.024
23,GCTGTCAATC,1.11 ± 0.053
24,GCTGTCGCTT,1.03 ± 0.027
25,GCTGTGGGTA,0.989 ± 0.01

row,Sequence,switch fluorescence ratio
1,GCTGTTGTTG,0.9918 ± 0.0051
2,GCTTAAGGCG,0.991 ± 0.051
3,GCTTAAGGCT,1 ± 0.022
4,GCTTACAGGC,1.04 ± 0.048
5,GCTTACGGGG,1.04 ± 0.049
6,GCTTACTCAT,1.09 ± 0.043
7,GCTTATTTAA,0.99 ± 0.021
8,GCTTCAAGTC,0.978 ± 0.018
9,GCTTCAAGTT,0.985 ± 0.027
10,GCTTCCTTGG,1.31 ± 0.079
11,GCTTCGGCCT,1.02 ± 0.058
12,GCTTCGGCGC,1.03 ± 0.046
13,GCTTCGTGTT,1.05 ± 0.003
14,GCTTGAGGGA,0.984 ± 0.042
15,GCTTGAGGGG,1.012 ± 0.0022
16,GCTTGCGGGA,1.03 ± 0.019
17,GCTTGCGGTC,0.9873 ± 0.0095
18,GCTTGGACTA,0.967 ± 0.011
19,GCTTGGGGTT,0.98 ± 0.021
20,GCTTGTATTT,1 ± 0.014
21,GCTTGTGAGG,1.02 ± 0.022
22,GCTTGTTAAA,0.994 ± 0.037
23,GCTTTACTGT,1.01 ± 0.013
24,GCTTTAGTTC,1.03 ± 0.003
25,GCTTTATAGG,1 ± 0.016

# — the supplement of paper PMC10126150
